Here are results for seven substances from article PMC3906981.

The first test has as its target HA-tagged PAK2 (p21 protein (Cdc42/Rac)-activated kinase) (UniProt Q13177). Description: co-immunoprecipitation (anti-AU1) with in vitro kinase assay, densitometric quantification. Also on record: reference not given here. The note with it: cells transfected with Nef, CDC42V12 and PAK2-HA; parent: 114.
UniProt Q13177, sequence (Q13177 whole entry): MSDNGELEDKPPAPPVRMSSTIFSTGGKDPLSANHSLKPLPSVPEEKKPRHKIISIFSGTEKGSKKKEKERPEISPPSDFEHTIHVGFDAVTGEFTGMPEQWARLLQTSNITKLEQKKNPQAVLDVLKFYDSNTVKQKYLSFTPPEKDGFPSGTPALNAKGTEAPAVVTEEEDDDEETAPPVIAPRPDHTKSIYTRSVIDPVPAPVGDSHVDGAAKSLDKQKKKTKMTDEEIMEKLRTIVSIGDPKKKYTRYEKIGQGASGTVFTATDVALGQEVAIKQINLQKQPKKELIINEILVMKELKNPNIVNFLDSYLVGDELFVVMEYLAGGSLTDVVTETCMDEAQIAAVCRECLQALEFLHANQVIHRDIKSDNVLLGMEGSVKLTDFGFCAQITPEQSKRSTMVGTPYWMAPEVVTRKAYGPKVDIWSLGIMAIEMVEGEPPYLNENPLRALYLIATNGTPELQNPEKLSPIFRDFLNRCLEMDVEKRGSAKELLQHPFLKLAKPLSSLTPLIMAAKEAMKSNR
Regarding “AU1-tagged SIVblu Nef, wild-type R129A; R130A”, the response was found to be 0.

The test is the same for the next values; noted with them: cells transfected with Nef, CDC42V12 and PAK2-HA; parent: 160.
“AU1-tagged SIVmac239 Nef, wild-type H121R”: the response came out at 23.
As for “AU1-tagged SIVmac239 Nef, wild-type H121R; Y221R”, the response was 0.
With “AU1-tagged SIVmac239 Nef, wild-type P104A”, the response was found to be 123.
For the substance “AU1-tagged SIVmac239 Nef, wild-type P104A; P107A”, the response was 34.
Regarding “AU1-tagged SIVmac239 Nef, wild-type P107A”, the response is 59.
On to “AU1-tagged SIVmac239 Nef, wild-type Y221R”, for which the response is 26.
